Reference: US20200140815A1 (CRISPR THERAPEUTICS, published 2020)

Key:
murine PTK7 = target: T1, murine PTK7 (murine, UniProt Q8BKG3 23-1062); assay: flow cytometry dose titration (200 nM-0.0032 nM) on murine 3T3L1 and M158 cells; secondary APC-conjugated human IgG-Fc antibody
T1 construct: whole, on cells; also called mouse antigen; PTK7 on murine 3T3L1 and M158 cells
T1 sequence (looked up): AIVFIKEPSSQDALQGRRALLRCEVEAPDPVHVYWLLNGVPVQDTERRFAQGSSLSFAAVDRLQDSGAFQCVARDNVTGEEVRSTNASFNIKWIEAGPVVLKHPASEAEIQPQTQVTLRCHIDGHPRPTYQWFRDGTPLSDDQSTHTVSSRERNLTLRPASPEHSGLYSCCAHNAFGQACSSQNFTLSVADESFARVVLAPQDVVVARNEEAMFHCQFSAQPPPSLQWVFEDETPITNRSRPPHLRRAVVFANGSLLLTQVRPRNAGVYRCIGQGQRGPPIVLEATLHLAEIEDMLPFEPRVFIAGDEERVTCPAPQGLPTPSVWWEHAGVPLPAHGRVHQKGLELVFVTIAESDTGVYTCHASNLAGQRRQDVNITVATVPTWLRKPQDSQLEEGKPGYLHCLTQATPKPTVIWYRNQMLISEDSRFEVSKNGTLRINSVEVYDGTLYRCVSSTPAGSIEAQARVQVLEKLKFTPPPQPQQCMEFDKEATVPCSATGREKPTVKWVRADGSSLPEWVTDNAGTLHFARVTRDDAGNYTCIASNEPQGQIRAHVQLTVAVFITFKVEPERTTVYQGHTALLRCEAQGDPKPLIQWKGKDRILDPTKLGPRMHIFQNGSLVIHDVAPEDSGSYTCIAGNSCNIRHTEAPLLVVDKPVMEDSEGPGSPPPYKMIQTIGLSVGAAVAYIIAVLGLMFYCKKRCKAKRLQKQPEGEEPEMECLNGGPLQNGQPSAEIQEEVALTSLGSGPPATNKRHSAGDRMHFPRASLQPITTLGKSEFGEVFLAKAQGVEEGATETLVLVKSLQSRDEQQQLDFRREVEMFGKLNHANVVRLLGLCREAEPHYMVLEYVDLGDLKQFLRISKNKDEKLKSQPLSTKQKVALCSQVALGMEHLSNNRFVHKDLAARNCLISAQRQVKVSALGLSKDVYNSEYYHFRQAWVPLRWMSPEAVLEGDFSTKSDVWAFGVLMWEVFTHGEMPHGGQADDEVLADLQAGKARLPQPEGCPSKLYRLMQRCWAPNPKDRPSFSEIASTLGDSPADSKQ
Protocol: (§1) To evaluate the species cross reactivity of the custom CTX181 antibody, its binding affinity was assessed in murine 3T3L1 fibroblast and murine M158 breast cancer cell lines and compared to its binding affinity in human Saos2 (osteosarcoma), A498 (renal carcinoma) and HCC70 (breast cancer) cell lines. For each cell line, a dose titration binding assay (200 nM-0.0032 nM final CTX181 antibody) was run on 2×10⁶ cells at each concentration. Cells were stained 30 min on ice with CTX181 antibody, followed by washing and 15 min stain at RT with secondary APC fluorophore conjugated human IgG-Fc antibody. Cells were assessed for staining on a Novocyte flow cytometer (Acea Biosciences).

[1] = target: T2, human protein tyrosine kinase 7 (PTK7) (human, UniProt Q13308 31-1070); assay: flow cytometry dose titration (200 nM-0.0032 nM) on human Saos2, A498 and HCC70 cells; secondary APC-conjugated human IgG-Fc antibody
T2 construct: whole, on cells; also called humPTK7; colon carcinoma kinase 4 (CCK4)
T2 sequence (looked up): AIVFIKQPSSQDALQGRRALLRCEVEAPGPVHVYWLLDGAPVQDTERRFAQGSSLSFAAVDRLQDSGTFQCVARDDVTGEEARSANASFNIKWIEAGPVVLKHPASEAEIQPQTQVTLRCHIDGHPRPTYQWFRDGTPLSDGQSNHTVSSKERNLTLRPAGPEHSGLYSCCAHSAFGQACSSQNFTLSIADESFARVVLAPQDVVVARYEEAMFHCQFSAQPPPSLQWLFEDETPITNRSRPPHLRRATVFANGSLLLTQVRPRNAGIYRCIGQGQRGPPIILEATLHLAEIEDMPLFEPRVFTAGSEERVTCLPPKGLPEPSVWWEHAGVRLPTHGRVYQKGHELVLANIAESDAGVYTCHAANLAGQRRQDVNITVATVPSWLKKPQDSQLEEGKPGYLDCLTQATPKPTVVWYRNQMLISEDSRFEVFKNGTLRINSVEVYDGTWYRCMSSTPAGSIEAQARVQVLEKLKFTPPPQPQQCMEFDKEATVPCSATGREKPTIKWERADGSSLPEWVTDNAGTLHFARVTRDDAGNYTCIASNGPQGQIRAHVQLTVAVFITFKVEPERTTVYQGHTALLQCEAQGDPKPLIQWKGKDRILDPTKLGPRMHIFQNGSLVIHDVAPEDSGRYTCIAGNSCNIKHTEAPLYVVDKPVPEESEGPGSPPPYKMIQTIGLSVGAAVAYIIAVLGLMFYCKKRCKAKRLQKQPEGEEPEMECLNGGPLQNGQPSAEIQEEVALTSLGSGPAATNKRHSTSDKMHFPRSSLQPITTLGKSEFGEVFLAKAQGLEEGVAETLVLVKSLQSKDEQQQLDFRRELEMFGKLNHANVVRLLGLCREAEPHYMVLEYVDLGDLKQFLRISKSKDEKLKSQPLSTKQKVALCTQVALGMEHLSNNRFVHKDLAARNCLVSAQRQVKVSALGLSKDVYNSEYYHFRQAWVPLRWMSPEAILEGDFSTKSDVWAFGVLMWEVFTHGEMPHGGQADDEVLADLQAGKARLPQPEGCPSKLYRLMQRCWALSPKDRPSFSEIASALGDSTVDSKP
Protocol: as §1

B1: CTX181 mAb (custom recombinant monoclonal anti-PTK7 antibody, Creative Biolabs) (antibody, human IgG1, kappa, V domains shown)
VH: QVQLVESGGGVVQPGRSLRLSCAASGFTFSSYGMHWVRQAPGKGLEWVAVIWDDGSNKYYVDSVKGRFTISRDNSKNTLYLQMNSLRAEDTAVYYCARDDYYGSGSFNSYYGTDVWGQGTTVTVSS
VL: EIVLTQSPATLSLSPGERATLSCRASQSVSIYLAWYQQKPGQAPRLLIYDASNRATGIPARFSGSGSGTDFTLTISSLEPEDFAVYYCQQRSNWPPFTFGPGTKVDIKR
notes: Used biotinylated for immunohistochemistry; In flow cytometry it was detected with a secondary APC-conjugated human IgG-Fc antibody; also called CTX181 antibody; CTX181 Ab
Murine PTK7
  binding result: binds
[1]
  binding result: binds
